Test results reported in US20100285022A1 (TRELLIS RSV, published 2010).

B1: human monoclonal antibody 1D4 (antibody, V domains shown)
VH: QVQLLQSGAELKKPGASVKVSCQASIDTFSTYYIHWVRQAPGQGLEWLGVINPSGGSTTYAQKFQDRITLTTDTSTRTVYMDLSSLRSEDTAVYYCARVHKGRAEQWQLLHGHFDLWGRGSLVTVSS
VL: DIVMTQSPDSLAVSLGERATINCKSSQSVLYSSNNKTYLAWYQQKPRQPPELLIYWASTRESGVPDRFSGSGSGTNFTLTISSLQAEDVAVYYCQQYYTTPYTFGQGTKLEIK
B2: human monoclonal antibody 1G8 (antibody, V domains shown)
VH: QLQLQESGPGLVKPSETLSLTCTVSGDSITSGQYYWAWIRQAPGKGLEWIGSIHYSGSTYQNPSLKSRLTISVDTSRDQISMKLSSVTVAESAVYYCAKQQLSLSPVENWFDPWGQGTLVTVSS
VL: EIVVTQSPVTLSVSPGESAALSCRASRSVGSRLAWYQQKPGQPPRLLIFAASTRATGIPARFSGSGSGTDFTLIISGLQSEDYAVYYCQQYKEWPLFTFGPGTTVDSK
B3: human monoclonal antibody 3D3 (antibody, V domains shown)
VH: EEQLVESGGGLVQPGRSLRLSCVGSGLRFEEHAMHWVRQAPGRGLEWVSGISWNSGSVGYADSVKGRFTTSRDNAKDILFLEMNTLRSEDTALYFCAIMVATTKNDFHYYKDVWGKGTTVTVSS
VL: QIVLTQSPATLSLSPGERATLSCKASQSVSNHLAWYQQKPGQAPRLLIYETSNRATGIPPRFSGSGSGTDFTLTISSLEPEDFAVYYCQQRNNWYTFGQGTKLEIK
B4: human monoclonal antibody 3G12 (antibody, V domains shown)
VH: QLQLQESGPGLVKPSETLSLTCTVSGGSISSSNYYWGWIRQPPGKGLEWIASIHDSGSIYYNPSLRSRVTISVDTSKNQFSLKLSSVTAADTAVYYCARHLVWFGELRNNWFDPWGQGTLVTVAS
VL: EIVMTQSPATLSVSPGERATLSCRASQSVNSNLAWYQHKPGQAPRLLIYGASTRATGIPARFSGSGSGTDFTLTISSLQSEDFAVYYCQQYNNWPLFGPGTKVDLK
B5: human monoclonal antibody 5D8 (antibody, V domains shown)
VH: QAQLVESGGGVVQPGRSLRLSCAASGFTFSYSGMHWVRQAPGRGLEWLAVISYDGNKMYYADSVKGRFTISRDNSKMTLYLQMNSLRREDTAVYYCAKDGLDYGGDLVYYGMDVWGNGTTVTVSS
VL: SYELTQPPSVSVSPGQTGRITCTGSEASGDALASRYAYWYQHKSGQAPVVLIYKDTERPSGISERFSGSSSGTTVTLIISGVLAEDEADYYCKTSVRNGTSWVFGTGTMLTVL
B6: murine monoclonal antibody 131-2G (antibody, V domains shown)
VH: EVQLQQSGPELVKPGTSVKISCKASGYSFTGFTMNWVKQSHGKNLEWFGLINPFNGNTGYNQKFKGKATLTVDKSSSTAFMELLSLTSEDSAVYYCARSGKSYDYEAWFTYWGQGTLVTVSA
VL: DIVMTQTTLSLPVSLGNQASISCRSSQTIVHTNGNTYLEWYLQKPGQSPKLLIYKVSNRFSGVPDRFSGSGSGTDFILNISRVEAEDLGVYYCFQGSHVPFTFGSGTKLEIKR
notes: also called mAb 1312G

Tests used:
[1] = molecular target: T1, RSV G protein of strain A (Ga protein) (respiratory syncytial virus, strain A …, UniProt P03423 66-298); test: Biacore, antibody on chip, recombinant Ga in flow
T1 construct: also called RSV-Ga; RSV-GA2 protein
T1 sequence (looked up): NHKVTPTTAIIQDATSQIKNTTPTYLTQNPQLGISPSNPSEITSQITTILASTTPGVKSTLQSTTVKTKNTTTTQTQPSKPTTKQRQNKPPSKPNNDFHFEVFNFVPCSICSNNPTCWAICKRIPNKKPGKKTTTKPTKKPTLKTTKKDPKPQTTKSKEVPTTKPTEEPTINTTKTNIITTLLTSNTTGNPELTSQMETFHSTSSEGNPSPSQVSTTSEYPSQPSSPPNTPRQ

[2] = molecular target: T2, RSV G protein of strain B (Gb protein) (respiratory syncytial virus, strain B); test: Biacore, antibody on chip, recombinant Gb in flow
T2 construct: also called RSV-Gb; G protein from strain B

[3] = molecular target: T3, G protein on live RSV virus coated on the plate (strain not stated) (respiratory syncytial virus); test: ELISA on live RSV virus coated on the plate, anti-human Fc-HRP detection
T3 construct: whole, on cells; also called live virus; virus particles

[4] = molecular target: T4, Ga derived 12-mer peptide SKPNNDFHFEVF (SEQ ID NO:8) (respiratory syncytial virus, strain A …); test: peptide array of overlapping 12-mer Ga peptides probed with 131-2G at 1 ug/ml, chemiluminescence
T4 construct: Peptide on an array of overlapping 12-mers
T4 peptide: SKPNNDFHFEVF

[5] = molecular target: T1, RSV G protein of strain A (Ga protein); test: Biacore, ratio of on-rate to off-rate; Biacore, not the ELISA midpoint (4 nM)

Binder | Kd [1] [nM] | EC50 (read off the curve) [3] [µg/mL] | also measured
B1 | 0.23 |  | Kd [2]: 0.052 nM
B2 | 0.024 | ~0.3 | 
B3 | 0.0011 | ~0.1 | 
B4 | 0.579 |  | 
B5 | 4.39 |  | 
B6 |  |  | binding result [4]: binds; Kd [5]: 7 nM
